Values of other authors, collected in article PMC5662943.

Target: PCNA (Homo sapiens) (UniProt P12004)
UniProt P12004, sequence (P12004 whole entry): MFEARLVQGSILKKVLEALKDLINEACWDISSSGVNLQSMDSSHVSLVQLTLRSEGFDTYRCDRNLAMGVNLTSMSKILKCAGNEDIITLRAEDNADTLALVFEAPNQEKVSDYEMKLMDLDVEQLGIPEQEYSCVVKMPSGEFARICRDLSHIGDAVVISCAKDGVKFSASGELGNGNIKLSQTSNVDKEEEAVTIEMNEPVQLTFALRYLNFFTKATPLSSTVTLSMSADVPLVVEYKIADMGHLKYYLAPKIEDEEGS

Kd: 0.2 nM
Substance: RFC (from UniProt P35251)
